Test results reported in patent publication US20060223116.

Tests used:
[1] = test system: T1, truncated GST-fusion T-bet protein, C-terminal fragment
T1 sequence (Q9UL17 whole entry, species assumed, looked up): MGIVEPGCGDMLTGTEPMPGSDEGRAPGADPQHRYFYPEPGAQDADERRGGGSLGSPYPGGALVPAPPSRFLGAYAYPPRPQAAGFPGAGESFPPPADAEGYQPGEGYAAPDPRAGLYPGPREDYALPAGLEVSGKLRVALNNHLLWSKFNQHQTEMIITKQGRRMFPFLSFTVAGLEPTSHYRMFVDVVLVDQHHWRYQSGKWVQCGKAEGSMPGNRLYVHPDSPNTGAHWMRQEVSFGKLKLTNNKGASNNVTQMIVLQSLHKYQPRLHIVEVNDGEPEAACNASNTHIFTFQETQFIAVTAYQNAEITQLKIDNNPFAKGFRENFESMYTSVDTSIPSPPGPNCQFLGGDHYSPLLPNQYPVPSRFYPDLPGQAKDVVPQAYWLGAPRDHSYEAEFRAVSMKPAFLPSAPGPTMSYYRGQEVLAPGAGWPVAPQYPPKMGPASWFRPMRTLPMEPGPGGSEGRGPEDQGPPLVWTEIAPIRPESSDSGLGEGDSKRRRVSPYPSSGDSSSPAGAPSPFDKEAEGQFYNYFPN

[2] = test system: T2, truncated GST-fusion T-bet protein, N-terminal fragment
T2 sequence (Q9UL17 whole entry, species assumed, looked up): T1 sequence (Q9UL17 whole entry, species assumed, looked up)

Q: Which results are given for “RLK-MYC (resting lymphocyte kinase, MYC-tagged)”?
A: in vitro kinase assay (32P-ATP, autoradiography) [1]: both the N and C terminal fragments but not the DNA binding domain, could be phosphorylated by the Tec kinases, ITK and RLK; in vitro kinase assay (32P-ATP, autoradiography) [2]: both the N and C terminal fragments but not the DNA binding domain, could be phosphorylated by the Tec kinases, ITK and RLK
